Experimental findings from patent publication US20260217833A1 (APTEVO RESEARCH AND DEVELOPMENT, published 2026) are described below.

B1: CD4001073 (bispecific antibody)
CD40_2H7 x Fc-Knob: DIVMTQSHKFMSTSVGDRVSITCKASQDVNTAVAWYQQKPGQSPKLLIYSASYRYTGVPDRFTGSGSGTDFTFTISSVQAEDLAVYYCQQHYSTPWTFGGGTKLEIKGGGGSGGGGSGGGGSGGGGSQVQLQQSGAELAKPGASVKMSCKASGYAFTTYWMHWVKQRPGQGLEWIGYINPTTGYTDYNQKFKDKATLTADKSSSTAYMQLSSLTSEDSAVYYCARWGLPPFAYWGQGTLVTVSAEPKSSDKTHTCPPCPAPPAAAPSVFLFPPKPKDTLMISRTPEVTCVVVDVSHEDPEVKFNWYVDGVEVHNAKTKPREEQYNSTYRVVSVLTVLHQDWLNGKEYKCAVSNKALPAPIEKTISKAKGQPREPQVYTLPPSRDELTKNQVSLWCLVKGFYPSDIAVEWESNGQPENNYKTTPPVLDSDGSFFLYSKLTVDKSRWQQGNVFSCSVMHEALHNHYTQKSLSLSPG
CD40_2H7 x Fc-Hole x PDL_5F9: DIVMTQSHKFMSTSVGDRVSITCKASQDVNTAVAWYQQKPGQSPKLLIYSASYRYTGVPDRFTGSGSGTDFTFTISSVQAEDLAVYYCQQHYSTPWTFGGGTKLEIKGGGGSGGGGSGGGGSGGGGSQVQLQQSGAELAKPGASVKMSCKASGYAFTTYWMHWVKQRPGQGLEWIGYINPTTGYTDYNQKFKDKATLTADKSSSTAYMQLSSLTSEDSAVYYCARWGLPPFAYWGQGTLVTVSAEPKSSDKTHTCPPCPAPPAAAPSVFLFPPKPKDTLMISRTPEVTCVVVDVSHEDPEVKFNWYVDGVEVHNAKTKPREEQYNSTYRVVSVLTVLHQDWLNGKEYKCAVSNKALPAPIEKTISKAKGQPREPQVYTLPPSRDELTKNQVSLSCAVKGFYPSDIAVEWESNGQPENNYKTTPPVLDSDGSFFLVSKLTVDKSRWQQGNVFSCSVMHEALHNRFTQKSLSLSPGGGGSPSEVQLVESGGGLVKPGGSLRLSCAASGFTFSDYGMAWVRQAPGKGLEWVAFITSLAYIIYYADSVKGRFTISRDNAKNSLYLQMNSLRAEDTAVYYCARNYGSSPYYFDYWGQGTLVTVSSGGGGSGGGGSGGGGSGGGGSDIQMTQSPSSLSASVGDRVTITCRASQDINKFLSWYQQKPGKAPKLLIHYTSSLQPGVPSRFSGSGSGTDFTLTISSLQPEDFATYYCLQYDNLYTFGQGTKLEIK
B2: CD4001067 (bispecific antibody)
PDL_5F9 x Fc-Knob: EVQLVESGGGLVKPGGSLRLSCAASGFTFSDYGMAWVRQAPGKGLEWVAFITSLAYIIYYADSVKGRFTISRDNAKNSLYLQMNSLRAEDTAVYYCARNYGSSPYYFDYWGQGTLVTVSSGGGGSGGGGSGGGGSGGGGSDIQMTQSPSSLSASVGDRVTITCRASQDINKFLSWYQQKPGKAPKLLIHYTSSLQPGVPSRFSGSGSGTDFTLTISSLQPEDFATYYCLQYDNLYTFGQGTKLEIKEPKSSDKTHTCPPCPAPPAAAPSVFLFPPKPKDTLMISRTPEVTCVVVDVSHEDPEVKFNWYVDGVEVHNAKTKPREEQYNSTYRVVSVLTVLHQDWLNGKEYKCAVSNKALPAPIEKTISKAKGQPREPQVYTLPPSRDELTKNQVSLWCLVKGFYPSDIAVEWESNGQPENNYKTTPPVLDSDGSFFLYSKLTVDKSRWQQGNVFSCSVMHEALHNHYTQKSLSLSPG
CD40_2H7 x Fc-Hole: DIVMTQSHKFMSTSVGDRVSITCKASQDVNTAVAWYQQKPGQSPKLLIYSASYRYTGVPDRFTGSGSGTDFTFTISSVQAEDLAVYYCQQHYSTPWTFGGGTKLEIKGGGGSGGGGSGGGGSGGGGSQVQLQQSGAELAKPGASVKMSCKASGYAFTTYWMHWVKQRPGQGLEWIGYINPTTGYTDYNQKFKDKATLTADKSSSTAYMQLSSLTSEDSAVYYCARWGLPPFAYWGQGTLVTVSAEPKSSDKTHTCPPCPAPPAAAPSVFLFPPKPKDTLMISRTPEVTCVVVDVSHEDPEVKFNWYVDGVEVHNAKTKPREEQYNSTYRVVSVLTVLHQDWLNGKEYKCAVSNKALPAPIEKTISKAKGQPREPQVYTLPPSRDELTKNQVSLSCAVKGFYPSDIAVEWESNGQPENNYKTTPPVLDSDGSFFLVSKLTVDKSRWQQGNVFSCSVMHEALHNRFTQKSLSLSPG
B3: CD4001049 (bispecific antibody)
scFv-Fc-scFv chain: DIVMSQSPSSLAVSVGEKVTMSCKSSQSLLFSVNQKNYLAWYQQKPGQSPKLLIYWASTRESGVPDRFTGSGSGTDFTLTIGSVKAEDLAVYYCQHYYSYPWTFGGGTKLEIKGGGGSGGGGSGGGGSGGGGSQVQLQQSGAELMNPGASVRISCKATGYTFSTSWIEWIKQRPGHGLEWIGEILPGSGSTNYNEKFKGKATFTADTSSNTAYMQLSSLTFEDSAVYYCARGDDGSYVRWYFDVWGAGTTVTVSSEPKSSDKTHTCPPCPAPPAAAPSVFLFPPKPKDTLMISRTPEVTCVVVDVSHEDPEVKFNWYVDGVEVHNAKTKPREEQYNSTYRVVSVLTVLHQDWLNGKEYKCAVSNKALPAPIEKTISKAKGQPREPQVYTLPPSRDELTKNQVSLTCLVKGFYPSDIAVEWESNGQPENNYKTTPPVLDSDGSFFLYSKLTVDKSRWQQGNVFSCSVMHEALHNHYTQKSLSLSPGGGGSPSEVQLVESGGGLVKPGGSLRLSCAASGFTFSDYGMAWVRQAPGKGLEWVAFITSLAYIIYYADSVKGRFTISRDNAKNSLYLQMNSLRAEDTAVYYCARNYGSSPYYFDYWGQGTLVTVSSGGGGSGGGGSGGGGSGGGGSDIQMTQSPSSLSASVGDRVTITCRASQDINKFLSWYQQKPGKAPKLLIHYTSSLQPGVPSRFSGSGSGTDFTLTISSLQPEDFATYYCLQYDNLYTFGQGTKLEIK
notes: also called CD40_1D5 x hFc x PDL_5F9
B4: CD4001064 (PDL_5F9 x hFc x CD40_2H7) (bispecific antibody)
chain: EVQLVESGGGLVKPGGSLRLSCAASGFTFSDYGMAWVRQAPGKGLEWVAFITSLAYIIYYADSVKGRFTISRDNAKNSLYLQMNSLRAEDTAVYYCARNYGSSPYYFDYWGQGTLVTVSSGGGGSGGGGSGGGGSGGGGSDIQMTQSPSSLSASVGDRVTITCRASQDINKFLSWYQQKPGKAPKLLIHYTSSLQPGVPSRFSGSGSGTDFTLTISSLQPEDFATYYCLQYDNLYTFGQGTKLEIKEPKSSDKTHTCPPCPAPPAAAPSVFLFPPKPKDTLMISRTPEVTCVVVDVSHEDPEVKFNWYVDGVEVHNAKTKPREEQYNSTYRVVSVLTVLHQDWLNGKEYKCAVSNKALPAPIEKTISKAKGQPREPQVYTLPPSRDELTKNQVSLTCLVKGFYPSDIAVEWESNGQPENNYKTTPPVLDSDGSFFLYSKLTVDKSRWQQGNVFSCSVMHEALHNHYTQKSLSLSPGGGGSPSDIVMTQSHKFMSTSVGDRVSITCKASQDVNTAVAWYQQKPGQSPKLLIYSASYRYTGVPDRFTGSGSGTDFTFTISSVQAEDLAVYYCQQHYSTPWTFGGGTKLEIKGGGGSGGGGSGGGGSGGGGSQVQLQQSGAELAKPGASVKMSCKASGYAFTTYWMHWVKQRPGQGLEWIGYINPTTGYTDYNQKFKDKATLTADKSSSTAYMQLSSLTSEDSAVYYCARWGLPPFAYWGQGTLVTVSA
notes: ADAPTIR format, anti-PD-L1 scFv on N-terminus, anti-CD40 scFv on C-terminus; also called CD4001064 (2H7)
B5: CD4001066 (PDL_5F9 x hFc x CD40_1D5) (bispecific antibody)
chain: EVQLVESGGGLVKPGGSLRLSCAASGFTFSDYGMAWVRQAPGKGLEWVAFITSLAYIIYYADSVKGRFTISRDNAKNSLYLQMNSLRAEDTAVYYCARNYGSSPYYFDYWGQGTLVTVSSGGGGSGGGGSGGGGSGGGGSDIQMTQSPSSLSASVGDRVTITCRASQDINKFLSWYQQKPGKAPKLLIHYTSSLQPGVPSRFSGSGSGTDFTLTISSLQPEDFATYYCLQYDNLYTFGQGTKLEIKEPKSSDKTHTCPPCPAPPAAAPSVFLFPPKPKDTLMISRTPEVTCVVVDVSHEDPEVKFNWYVDGVEVHNAKTKPREEQYNSTYRVVSVLTVLHQDWLNGKEYKCAVSNKALPAPIEKTISKAKGQPREPQVYTLPPSRDELTKNQVSLTCLVKGFYPSDIAVEWESNGQPENNYKTTPPVLDSDGSFFLYSKLTVDKSRWQQGNVFSCSVMHEALHNHYTQKSLSLSPGGGGSPSDIVMSQSPSSLAVSVGEKVTMSCKSSQSLLFSVNQKNYLAWYQQKPGQSPKLLIYWASTRESGVPDRFTGSGSGTDFTLTIGSVKAEDLAVYYCQHYYSYPWTFGGGTKLEIKGGGGSGGGGSGGGGSGGGGSQVQLQQSGAELMNPGASVRISCKATGYTFSTSWIEWIKQRPGHGLEWIGEILPGSGSTNYNEKFKGKATFTADTSSNTAYMQLSSLTFEDSAVYYCARGDDGSYVRWYFDVWGAGTTVTVSS
notes: ADAPTIR format, anti-PD-L1 scFv on N-terminus, anti-CD40 scFv on C-terminus; also called CD4001066 (1D5)

The target of the assay is T1, Human PD-L1 full-length (human, UniProt Q9NZQ7 19-290).
T1 construct: also called PDL01021; CHOK1SV/huPDL1
T1 sequence (Q9NZQ7 19-290): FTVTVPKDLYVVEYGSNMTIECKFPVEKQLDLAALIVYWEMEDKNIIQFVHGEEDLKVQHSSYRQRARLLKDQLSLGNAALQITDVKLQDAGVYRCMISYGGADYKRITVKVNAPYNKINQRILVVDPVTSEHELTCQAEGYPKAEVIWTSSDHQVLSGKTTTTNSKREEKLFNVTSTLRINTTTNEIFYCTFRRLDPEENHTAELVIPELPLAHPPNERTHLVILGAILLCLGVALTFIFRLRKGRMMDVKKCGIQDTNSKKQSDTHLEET
Description: flow cytometry, CHOK1SV/human PD-L1 cells.
Turning to B1, the binding result is on record as “binds”.
Consider B2, for which the binding result is reported as “binds”.
In the case of B3, the binding result is “binds”.
Under B4 stands “binds”.
In the case of B5, the binding result was “binds”.
